Data on 1 substance can be found in paper doi:10.1101/2024.07.03.601791.

The target of this assay is PR20 modified with a dansyl group at the N-terminus (Dnc-PR20). In words: other fluorescence titration.

Kapβ2 Δloop, sequence (Q92973 9-898, stated change not applied): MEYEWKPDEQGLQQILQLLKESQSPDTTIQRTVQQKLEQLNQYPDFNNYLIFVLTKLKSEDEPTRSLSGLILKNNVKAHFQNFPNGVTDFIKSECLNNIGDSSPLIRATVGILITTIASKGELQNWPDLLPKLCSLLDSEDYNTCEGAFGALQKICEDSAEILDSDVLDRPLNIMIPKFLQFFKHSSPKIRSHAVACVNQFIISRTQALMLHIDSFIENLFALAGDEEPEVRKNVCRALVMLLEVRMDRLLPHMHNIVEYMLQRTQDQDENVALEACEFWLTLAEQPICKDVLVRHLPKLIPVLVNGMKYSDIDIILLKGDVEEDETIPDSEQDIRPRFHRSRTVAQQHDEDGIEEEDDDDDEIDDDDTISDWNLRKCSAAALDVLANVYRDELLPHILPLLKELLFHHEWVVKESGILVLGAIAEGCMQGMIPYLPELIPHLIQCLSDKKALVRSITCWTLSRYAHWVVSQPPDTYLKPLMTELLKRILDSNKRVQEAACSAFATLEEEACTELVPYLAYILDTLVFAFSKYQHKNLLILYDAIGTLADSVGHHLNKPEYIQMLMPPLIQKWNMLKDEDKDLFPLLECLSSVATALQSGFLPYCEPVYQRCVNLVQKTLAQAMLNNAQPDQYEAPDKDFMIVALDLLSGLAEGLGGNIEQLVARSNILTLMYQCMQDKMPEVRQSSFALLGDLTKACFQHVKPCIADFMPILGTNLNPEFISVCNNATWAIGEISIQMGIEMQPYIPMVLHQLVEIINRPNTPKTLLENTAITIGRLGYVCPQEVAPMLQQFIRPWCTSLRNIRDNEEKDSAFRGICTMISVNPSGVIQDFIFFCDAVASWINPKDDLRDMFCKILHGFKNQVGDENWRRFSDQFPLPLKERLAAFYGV

For orientation: Kd means the equilibrium constant for the complex coming apart. Lower therefore signals tighter binding. In the case of “Kapβ2 Δloop (from UniProt Q92973-2 1-890) (natural protein)”, the Kd came out at 310 nM.
